Results taken from the RNAGym collection of RNA variant scans (doi:10.7554/elife.80360).

B1: CPEB3 Ribozyme (parent)
chain: GGGGGCCACAGCAGAAGCGUUCACGUCGCGGCCCCUGUCAGAUUCUGGUGAAUCUGCGAAUUCUGCUGU

Variants of: B1
Assay: self-cleavage, relative activity (ratio to wild type); higher = more cleavage; co-transcriptional

In order of rising self-cleavage:
1. G47A C57G  0.303
2. C45U C57U  0.317
3. G48C C57U  0.32
4. G48A C57A  0.329
5. U49G A60C  0.338
6. G47C A60C  0.366
7. U49A C57U  0.379
8. G48U C57U  0.388
9. G48U C57G  0.398
10. G48U A60U  0.561
11. U49G U53G  0.585
12. U46A G65C  0.601
13. C45G G65C  0.62
14. U46C G65U  0.629
15. U49A A51C  0.633
16. C45A U61C  0.697
17. C45U A59C  0.72
18. U49A G56C  0.765
19. U46C G56C  0.785
20. C45A U53C  0.804
21. C45A C63G  0.813
22. C45A G65A  0.814
23. U49C U61C  0.816
24. U49A G65U  0.821
25. U46G C63G  0.825
26. U46G A59C  0.828
27. U46A C63G  0.838
28. U46G C54A  0.845
29. C45A G56A  0.848
30. G48C A59U  0.861
31. C45A U53G  0.863
32. U46C U53C  0.878
33. U49C U64A  0.89
34. G47C C63G  0.891
35. U49A U55C  0.895
36. G47U U64A  0.904
37. U49G C54A  0.907
38. U49A U55G  0.907
39. U46A C63A  0.908
40. U49C U64G  0.909
41. U49A U61C  0.91
42. G47C U62C  0.91
43. U49C U61A  0.911
44. G48A A60G  0.916
45. U49G U53A  0.918
46. C45G U53A  0.921
47. G48U U62A  0.922
48. U49G C54G  0.925
49. G48U U62G  0.927
50. C45U G65A  0.929
51. U46A U53G  0.931
52. G47C U55G  0.931
53. U46C G58U  0.933
54. U46C G56A  0.933
55. U46C U53A  0.933
56. U49C G56A  0.935
57. G47A G65A  0.936
58. G47U U61C  0.937
59. G48U C66G  0.937
60. U46A U62A  0.937
61. C45G U62A  0.939
62. U46G G50C  0.941
63. G47U U64C  0.943
64. C45U G56A  0.943
65. G47C C63A  0.944
66. G47U G65U  0.946
67. G48C U62C  0.946
68. G48C A60G  0.948
69. U49C G56U  0.948
70. C45U U46G  0.952
71. G47U G65A  0.953
72. U46A G65A  0.954
73. U49C A60G  0.955
74. G47C U64C  0.956
75. G48U U61G  0.958
76. G48A U53C  0.958
77. G47A U62G  0.959
78. U46C C66U  0.959
79. G48U G65A  0.961
80. G48C G56U  0.962
81. G47C G50A  0.965
82. U49G U55A  0.968
83. G48C U53A  0.968
84. G48C G58U  0.969
85. U46A U53C  0.971
86. U46G U49G  0.972
87. U46A U67A  0.972
88. G48A G56U  0.972
89. U46A C54U  0.973
90. G48A U62A  0.973
91. G47A U49C  0.975
92. U49G G50C  0.975
93. G47U C54G  0.975
94. U46C C54U  0.975
95. C45U U46C  0.975
96. U46C G58C  0.976
97. G48C A51U  0.976
98. U49A U69A  0.976
99. U46A G50U  0.977
100. C45G G68U  0.979
101. U49G U53C  0.98
102. U49C U62A  0.98
103. G48A G58C  0.98
104. G47U U62A  0.983
105. C45U C66U  0.984
106. G48A U49A  0.984
107. G48C G68U  0.985
108. U49A G50U  0.986
109. C45U U49C  0.986
110. C45G U49A  0.987
111. G47U A52G  0.987
112. G48A U53G  0.987
113. G48A G58U  0.987
114. C45A G58U  0.988
115. U46A G68U  0.988
116. U46A U53A  0.989
117. G47C U69A  0.99
118. U49A U67C  0.99
119. U46G C54U  0.992
120. G48C G68C  0.992
121. U49C G58C  0.993
122. U49G G50U  0.993
123. G47A A52C  0.993
124. G48C U62A  0.994
125. G47C G48U  0.995
126. G47U A51G  0.998
127. G48C C66U  0.998
128. U49A C66U  0.998
129. C45U U46A  0.999
130. C45G G47C  1
131. U49A A52C  1
132. G47A G68C  1
133. G47C C66U  1
134. G47A U49A  1.01
135. C45U U67A  1.01
136. G48C U69A  1.01
137. C45U A51G  1.01
138. C45G U67G  1.01
139. G47A A52U  1.01
140. C45U U49G  1.01
141. G48A G68A  1.01
142. G48A G68U  1.01
143. G47U U53A  1.01
144. G47C A60G  1.01
145. C45U G68A  1.02
146. C45A C63U  1.02
147. C45U U67G  1.02
148. G47U A52C  1.02
149. G48C A51C  1.02
150. U49A A52U  1.02
151. U46C G68U  1.02
152. U46C G47U  1.02
153. G47C A51U  1.02
154. G48A A51G  1.03
155. U46A U69G  1.03
156. G48A U53A  1.03
157. G47C U55A  1.03
158. U49A U67G  1.03
159. U46A G47C  1.04
160. G47C U67A  1.04
161. C45G G47U  1.04
162. U49A A51G  1.05
163. G48C U69G  1.05
164. G47C G48C  1.05
165. G47C U69G  1.06
166. U49A U69C  1.06
167. G48A U69G  1.07
